Paper PMC8776730 (Nature Communications, 2022)

What was measured:
[1] = test system: Recombinant Human Fibroblast Activation Protein-α (FAP-α); assay: FAP-α in buffer: 50 mM Tris, 1 M NaCl, 1 mg/mL, BSA, pH 7.5; settings: up to 12 h
[2] = mouse, in vivo, iv, 16 mg/kg
MIA PaCa-2 tumor = settings: mouse, in vivo, iv, 16 mg/kg
Method: In order to reduce systemic error and individual difference, we constructed the subcutaneous pancreatic cancer model in mice for quantitatively calculating of the metabolic data.
All the animal experiments were performed in accordance with the Guide for the Care and Use of Laboratory Animals approved by the Committee for Animal Research of the National Center for Nanoscience and Technology. The MIA PaCa-2 tumor-bearing mice were intravenously injected with ICG, M1 and M2 (16 mg/kg), respectively for in vivo fluorescence imaging with in vivo spectrum imaging system. Finally, mice were sacrificed to collect the major organs and tumors for ex vivo fluorescence imaging.

MIA PaCa-2 cells [3] = assay: Transwell migration assay; format: cell-based; settings: MIA PaCa-2, 150 μM, 24 h; blank control = 1
Method: (§1) Fig. 5 The BIVA effect with enhanced targeting to pancreatic tumor cell for boundaries imaging. a Illustration of BIVA effect: active targeting and assembly/aggregate induced retention (AIR) effect. b Chemical structure of FITC labeling. c 2D and 3D confocal images of M2 with active targeting property and M1 with BIVA effect on MIA PaCa-2 cells after incubation for 1 h. d The distribution of M1 on MIA PaCa-2 cell. e ThT staining of the lysed cell membrane of MIA PaCa-2. f, Illustration of migration inhibition after treated by BIVA probe. g The image of the migrated cells after treatment of PBS (blank), M2, M4, and M1. Scale bar: 100 μm. h The pie diagram of quantitative statistical calculation of the migrated cells (blue) in different groups. The blank control was set as 100% migrated cells.
In order to further understand the contribution of the active targeting and AIR effect during locating of the cells, the cell transwell experiment was used to quantitively evaluate interference of the cell migration based on M1, M2, and M4 (Fig. 5f). As expected, untreated cells were easy to migrate to the lower chamber, while the cells treated with active targeting molecule M2 and assembled molecule M4, the migration of cell were reduced. Under the same molar concentration, the M1 treatment group had the most inference on cell migration (Fig. 5g). […] Based on those results, we speculate M1 can be more enriched in the tumor site and form fibers through assembly to inhibit tumor cell migration compared to M2 and M4 which have no ability to target and adhere on the cell membrane.
Transwell migration assay occurred in chemotaxis chambers containing 24 wells. […] Bottom chambers contained DMEM medium containing 10% FBS. After 24 h of treatment with M1, M2, and M4 (150 μM), we fixed cells using 4% paraformaldehyde and stained with 0.25% crystal violet solution. The stained cells were counted using a microscope.
Supplementary Fig. 20∣ The quantitative results of the migrated cells after treatment of PBS (blank), M2, […] and
M1 (Fig 5g). The mean of results of fiveparallel experiments is shown and data were expressed as mean ± SD (n=5).
pM1 = 5.85E-06, pM2 = 5.94E-05, pM4 = 3.16 E-04, Statisticalanalysis: one-way ANOVA followed by post hoc Tukey’s
(1 picture or pasted object on this page, not shown here)

MIA PaCa-2 cells [4] = assay: Cellular imaging (CLSM) of FITC-labelled molecules; format: cell-based; settings: FITC-labelled molecules, MIA PaCa-2 cells, 1 h incubation, CLSM
Method: To further confirm this hypothesis, the M1 and M2 were equally labeled by FITC for cell imaging (Fig. 5b). To simulate the dynamic physiological condition, the cell culture medium was replaced every 15 min. After 1 h of incubation with M1 and M2 at the same molecule molar concentration, there occurred significant differences between the two molecules (Fig. 5c). […] The huge difference can be explained by the fact that the secondary assembly rate broke the balance between the targeted ligand and receptor, and thus tended to a stable assembly interaction. The retention efficiency depended on the assembly rate constant Ka. Meanwhile, the rapid dynamic assembly of BIVA probe in situ around the cell membrane, and contributed to the efficient formation and retention of nanofibers on the cell profile. When the incubation time was delayed up to 2 h, some components could be endocytosed into the cells, but most of them were found on the membranes (Supplementary Fig. 18). […] Then, the isolated cells were collected and lysed, the extracted cell membrane fragments were stained with ThT. […] In order to verify the influence of the addition of the targeting module of the probe molecules, we explored the imaging of R-M1 and M4 on cells.
as §1
MIA PaCa-2 cells were digested with trypsin, counted with cell counting plate, diluted to 1 × 10^4 with DMEM medium, and 1 mL to 1 cm diameter confocal microscope dish was taken. The cells were incubated in […] atmosphere for 24 h. The medium containing M1 and M2 (50 μM) was replaced and incubated with the cells for 2 h. The cells were washed with PBS for 3 times. CLSM (Zeiss 710) was used to image cells under 40 × objective, excitation = 488 nm, and emission >520 nm.
Supplementary Fig. 19 ∣ CLSM images of Miapaca-2 cells treated with different molecules or M1 under different conditions. […]

FAP-α = molecular target: T1, FAP-α (Homo sapiens, UniProt Q12884); assay: FAP-α tailoring (cleavage) followed by HPLC and MALDI-TOF; format: biochemical; settings: 100 μM molecule, FAP-α 50 μM, 12 h; buffer 50 mM Tris, 1 M NaCl, 1 mg/mL BSA, pH 7.5; HPLC (M3, M5), MALDI-TOF (M1)
T1 construct: purchased R&D SYSTEM
T1 sequence (Q12884 1-760): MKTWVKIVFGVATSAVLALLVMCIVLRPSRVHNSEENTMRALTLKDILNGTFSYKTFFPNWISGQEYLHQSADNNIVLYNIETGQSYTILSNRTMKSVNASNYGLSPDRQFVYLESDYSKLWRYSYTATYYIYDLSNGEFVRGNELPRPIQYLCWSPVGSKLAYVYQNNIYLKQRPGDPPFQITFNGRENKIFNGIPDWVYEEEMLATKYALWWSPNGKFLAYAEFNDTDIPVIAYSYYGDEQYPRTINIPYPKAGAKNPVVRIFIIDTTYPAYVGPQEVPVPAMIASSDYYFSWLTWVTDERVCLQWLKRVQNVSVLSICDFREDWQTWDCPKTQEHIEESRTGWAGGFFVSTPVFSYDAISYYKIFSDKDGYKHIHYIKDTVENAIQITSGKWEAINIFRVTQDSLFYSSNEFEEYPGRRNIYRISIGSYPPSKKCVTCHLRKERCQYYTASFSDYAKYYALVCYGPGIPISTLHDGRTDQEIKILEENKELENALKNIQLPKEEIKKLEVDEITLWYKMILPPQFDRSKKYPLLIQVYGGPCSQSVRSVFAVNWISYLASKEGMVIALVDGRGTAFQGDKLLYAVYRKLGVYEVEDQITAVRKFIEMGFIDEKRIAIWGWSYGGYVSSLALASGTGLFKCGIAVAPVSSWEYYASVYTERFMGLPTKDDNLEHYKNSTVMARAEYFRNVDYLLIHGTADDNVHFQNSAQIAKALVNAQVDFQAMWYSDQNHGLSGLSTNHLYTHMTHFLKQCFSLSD
Excerpt: To further investigate the FAP-α specific tailoring and BIVA probe assembly in situ simultaneously (Fig. 4a), the high-performance liquid chromatography (HPLC), TEM, and matrix-assisted laser desorption/ionization time-of-flight (MALDI-TOF) mass spectrometry were applied for the characterizations purpose. To specify the cutting of the response tailoring motif (Gly-Pro-Ala), pre-synthesized molecules of R-M3, M3 and M5 were set as controls. […] Comparing the residues peaks with R-M3, the primary sharp peak at 27.4 min can be identified by the R-M3 control (27.6 min). […] The retention time of M1 after co-incubation with inactivated FAP-α was similar to that of M3 (Supplementary Fig. 14). After hydrolyzed by FAP-α, the residues of M1 in situ assembled into nanofibers structures under the complex buffer (Fig. 4c and Supplementary Fig. 15). […] In order to further evaluate the specificity of M1 for different enzymes, including FAP-α, pepsin, pancreatin, lipase, and BSA, we used ThT (Thioflavin T) as a detection probe (Fig. 4e).
Fig. 4 The FAP-α specific molecule tailoring and inducing in situ assembly. a The illustration the working mechanism of BIVA probe based on FAP-α catalytic hydrolysis. b HPLC curves of M3 and M5 after incubation with FAP-α in buffer. R-M3, M3 and M5 were synthesized controls. The TEM image (c), and the MALDI-TOF (d), results of M1 after tailoring by FAP-α in buffer, the red arrows represent the assembled fibrils of M1 after incubation with FAP-α. e The enzyme specificity of M1 in buffer. Buffer: 50 mM Tris, 1 M NaCl, 1 mg/mL, BSA, pH 7.5; Concentration of M1 and M3: 100 μM; Concentration of FAP-α: 50 μM; incubation time: 12 h. […]

[5] = Critical assembly concentration (CAC) by pyrene fluorescence probe; format: physicochemical
Excerpt: In order to study the molecular design and their assembly behavior, we modular designed and synthesized seven molecules (Table 1), which respectively were BIVA probe: M1 (mPEG-GPAKLVFFGC(IR783)GRGD); the non- FAP-α tailoring molecule: M2 (mPEG-AGGKLVFFGC(IR783)GRGD) scrambled response tailoring motif of Gly-Pro-Ala with Ala-Gly-Gly; the non-labeling molecule of M1: M3 (mPEG-GPAKLVFFGCGRGD) removed IR783 labeling; FAP-α tailoring residue of M1: R-M1 (AKLVFFGC(IR783)GRGD); the non-targeting molecule: M4 (mPEG-GPAKLVFFGC(IR783)GDTG) scrambled targeting tailoring motif of Arg-Gly-Asp with Asp-Thr-Gly; the non-labeling molecule of M2: M5 (mPEG-AGGKLVFFGCGRGD) removed IR783 labeling; FAP-α tailoring residue of M3: R-M3 (AKLVFFGCGRGD). All the synthesized procedure (Supplementary Fig. 1) and characterizations of these seven molecules can be found in SI (Supplementary Figs. 2–8). […] Without IR783 labeling, molecules of M3 and M5 decreased the CAC value in solution relative to M1 and M2, which could be attributed to the proximity of the steric hindrance of hydrophilic IR783 to the self-assembly motif (Supplementary Fig. 9). […] The CAC was quantitatively calculated by fluorescence probe of pyrene.

For mPEG-GPAKLVFFGCGRGD, which cleaved bond [1] is on record?
Its cleaved bond is “Pro-Ala”.

For `CC1(C)C(/C=C/C=C/C=C/C=C2\N(CCCCS(=O)(=O)O)c3ccc4ccccc4c3C2(C)C)=[N+](CCCCS(=O)(=O)[O-])c2ccc3ccccc3c21` [ICG, indocyanine green], which “blood circulation half-life (t1/2)” value [2] is on record?
Its value is 2.5 ± 0.5 min.

What about the “time to complete metabolic clearance” value (MIA PaCa-2 tumor) of the same compound?
The value was ≤ 8 h.

Which not cleaved [1] does the source give for mPEG-AGGKLVFFGCGRGD here?
The not cleaved was “no change of the retention peak”.

Which “emigrate (migrated cells relative to blank)” value (MIA PaCa-2 cells [3]) does the source give for “mPEG-GPAKLVFFGC(IR783)GDTG [M4, the non-targeting molecule]” here?
Its value is 0.5282.

And the “fluorescence signal on the cell membrane” value (MIA PaCa-2 cells [4])?
The value was “only a small amount of fluorescence signal”.

Which results are given for “mPEG-AGGKLVFFGCGRGD [M5, the non-labeling molecule of M2]”?
tailoring (cleavage) by FAP-α (FAP-α): no change of the retention peak; Critical assembly concentration (CAC) ([5]; aqueous solution, analyzed based on pyrene fluorescence): >332.7 µM; pyrene I1/I3 ([5]; conc 100 μM): 1.152; pyrene I1/I3 ([5]; conc 200 μM): 1.176; pyrene I1/I3 ([5]; conc 300 μM): 1.178; pyrene I1/I3 ([5]; conc 400 μM): 1.119; pyrene I1/I3 ([5]; conc 500 μM): 1.173; pyrene I1/I3 ([5]; conc 600 μM): 1.077; pyrene I1/I3 ([5]; conc 700 μM): 1.029; pyrene I1/I3 ([5]; conc 800 μM): 1.021; pyrene I1/I3 ([5]; conc 900 μM): 0.975
